Test results taken from patent US20250147051A1, “METHOD FOR DETECTING A TAU PROTEIN IN A SALIVA SAMPLE” (GTINVENT LIMITED, priority 2022, published 2025).

Key:
plasma tau = assay: 3-step Simoa assays of human plasma (AD/MCI vs healthy control / CU); settings: label = capture antibody; CA4 with BT2 detector; BT2 or HT7 with S1D12 or S1G2 detectors
Protocol: Human plasma samples were sourced from the commercial supplier Logical Biological Ltd. Healthy control (HC, n=12) and samples from individuals with a diagnosis of AD or mild cognitive impairment (AD/MCI, n=42) were aliquoted into low bind microfuge tubes and stored at −80° C.
The Simoa® experiments used for plasma screening utilised a 3-step protocol optimised for use with plasma samples. A standard curve (540 pg/ml−0.7 pg/ml) was created by spiking recombinant hTau40 into Tau 2.0 diluent and triple diluting. Plasma samples were diluted 1:100 and added in duplicate to the Simoa® plate followed by the addition of respective capture beads. Different antibody pairings used for plasma screening is explained in Table 28. In general, the capture antibody coated beads are mixed with diluted plasma samples, added to the plates and incubated for 30 min at 30° C. with shaking. Following the incubation, the plates were washed using the Simoa® plate washer before the addition of 0.2 μg/ml biotinylated detector antibody which was left to incubate as before for 10 min. The plates were then washed again before the addition of SBG and a final 10 min incubation. After the final incubation and wash steps the plates were transferred to the Simoa® reader and plasma tau concentrations generated against a 4-parameter fit curve. […]

dGA = dGA (Homo sapiens, UniProt P10636); assay: Biacore X100 SPR binding kinetics of anti-tau scAbs (scAb captured via HuCk), analyte dGA; settings: lead scAbs
dGA, sequence (P10636 614-707): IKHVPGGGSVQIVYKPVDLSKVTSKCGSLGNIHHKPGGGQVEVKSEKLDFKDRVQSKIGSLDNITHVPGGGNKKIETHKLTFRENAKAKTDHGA
Protocol: Surface plasmon resonance (SPR) is widely regarded as the gold standard for real time measurement of protein-protein interactions such as antibody binding. All SPR experiments were carried out using a Biacore X100 machine and HBS EP+ running buffer (GE Healthcare). A ‘capture’ method was followed for affinity measurements, where an anti-human constant kappa chain (HuCk) antibody was conjugated to the surface of a CM5 sensor chip using an amine coupling kit and scAb molecules were immobilised via their HuCk domain. Amine coupling is a very common approach for immobilising the ligand to the chip surface. The chip surface has a dextran matrix derivatised with carboxyl groups, which after activation with N-hydroxysuccinimide (NHS) and 1-ethyl-3-(3-dimethylaminopropyl) carbodiimide (EDC), form reactive succinimide esters which allows the covalent capturing of the ligand via any available primary amine groups (e.g. Lysine) on the ligand (in this case anti-HuCk antibody). The capture antibody was diluted 1/100 in 10 mM Sodium acetate buffer pH 5.0 and passed over the activated chip surface for a period of at least 420 s. Final ligand immobilisation levels over 12,000 RU were deemed to be satisfactory.
Following immobilisation, the level of each scAb to be captured was identified using the standard SPR equation with a theoretical RMax of 100 RU. Analyte MW refers to the molecular weight of hT40 or dGA/dGAE molecules, while ligand MW refers to the molecular weight of the scAbs tested. RLis the desired capture level and S refers to the stoichiometric ratio:
The scAb to be tested was added only to flow cell 2 so that flow cell 1 could act as a control to subtract any interaction with the analyte and the chip surface. Both single and multi-cycle runs were utilised using wizards developed in the Biacore X100 control software which are both accepted methods of kinetic analysis (Karlsson, R., et al. Analyzing a kinetic titration series using affinity biosensors (2006) Analytical Biochemistry 349:136-47). The multi-cycle protocol was as follows-Three start-up cycles composed of an initial capture, to the desired level, of the scAb to be tested was performed followed by a 30 s injection of glycine buffer pH 2.0 after each cycle to regenerate the chip surface. The regeneration step removed any captured scAb whilst leaving the capture antibody intact and able to repeat the capture for the next cycle. Following three start-up cycles increasing concentrations (0.15625 nM-100 nM) of the target to be tested were added to the chip surface after the desired scAb capture. The target was added for a 120 s association period and 420 s dissociation period followed by another regeneration, 30 s injection of glycine buffer pH 2.0 in between each cycle.
The single cycle kinetics protocol was similar and utilised the same level of scAb capture. Three start-up cycles were used followed by 5 increasing concentrations of the analyte (6.25 nM-100 nM) for an association period of 120 s followed by a dissociation period of 420 s for each concentration. In single cycle kinetics the regeneration step was performed only after the final analyte concentration was added. Binding responses were analysed in Biacore X100 evaluation software and data fitted to a 1:1 binding model to obtain kinetic and affinity characterisation.

hT40 = assay: Binding ELISA with truncated tau proteins and 13mer peptide libraries for epitope mapping of anti-tau scAbs; set-up: species or system human; settings: residue numbers of hT40
Protocol: A series of binding ELISA was performed using various truncated versions of the tau protein and 13mer peptide libraries spanning the entire hT40 molecule for mapping the epitopes of anti-tau scAbs (Full list of protein antigens used is given in Table 14). In general, ELISA plates were coated with 1 μg/ml hT40 or dGA or dGAE or other truncated versions of the protein and in the case of biotinylated peptides, plates were coated with 5 μg/ml Streptavidin followed by 1 μg/ml biotinylated peptide. The plates were blocked with 2% MPBS and scAb samples added at desired starting concentrations and double diluted across the plate. Binding was detected using anti-Human C Kappa HRP conjugated secondary antibody and the resulting immunoreaction was developed and absorbance values measured as described above.
Selected E specific scAbs and their specific binding to dGAE is shown below (FIG. 8A-E).
Similarly, dGA binding ‘NS’, ‘S’ and ‘M’ group scAbs were subjected to further antigen binding ELISA using shorter tau proteins and biotinylated 13mer peptides as shown below (FIG. 10A-F) and (FIG. 11A-R).

tau [1] = assay: Capture ELISA of transgenic mouse plasma; settings: Line66 transgenic model; detection scAb with S1D12 mAb capture
Protocol: Plasma samples from WT, L1, L66+/− and L66+/+ of various ages (1.5-9 months) were taken as described. Mice were terminally anaesthetized using an overdose of sodium pentobarbital and blood was collected through cardiac puncture through a Plastipak syringe pre-rinsed with heparinised saline heparin (10 U/ml) (Heparin sodium salt; Sigma-Aldrich) and transferred into a plastic vial containing lithium heparin anticoagulant (Sarstedt Ltd.) Blood samples, kept on ice for no more than 30 minutes, were centrifuged to obtain plasma at 2000×g for 5 minutes at 6° C. Plasma samples were stored at −20° C.
For mouse plasma capture ELISA, 100 μL capture mAb was coated to the bottom of a black nunc 96 well ‘maxisorp’ plate at 2.5 μg/ml and incubated for 1 hour at 37° C. After washing and blocking as normal, several known standard solutions were set up in triplicate starting at 20 ng/ml of the desired protein before double diluted in the remaining wells. Mouse samples were added to wells in duplicate with a blank in between each sample group. Line1 plasma was diluted 1:10 before addition to plate to account for its high concentration while other samples were diluted 1:2 to account for potential matrix effects. […] The ELISA was developed using SuperSignal ELISA Femto Substrate (Thermo Scientific) and total luminescence was read on Clariostar Plus plate reader (BMG Labtech). […]

tau [2] = assay: Western blot of mouse brain homogenates (WT, L66+/+, L1+/+); settings: 20 μg brain homogenate protein, 5-month-old WT, L1+/+ mice
Protocol: Protein equivalent to 20 μg from each brain extract was separated using 4-20% bis-tris gels and run in 1×MES buffer. […] A clear band is visible in the lanes containing L66^+/+ samples, but no other bands are detectable (WT or L1^+/+). […] Once again, a band having relative mobility of 65 kDa is visible in the L66 sample with no other reactive bands present.
This band most likely corresponds to endogenous mouse tau which is of a similar size. In the L66^+/+ samples, a second band running at approximately 68 kDa is also detected. The presence of numerous other bands indicates proteolytic truncation of tau within brain homogenates.

tau protein = assay: Capture ELISA of transgenic mouse brain lysates; settings: S1D12 mAb capture, label = detection scAb, WT, L1, L66+/- and L66+/+
Protocol: Mouse brain lysates were prepared from wildtype, Line 1, Line 66+/+ and Line 66+/− (Melis et al., 2015, all surplus from Charles River, part of study R0144). All animals were female, 7-8 months old except Line 66+/+ which were 5 months old. […] The L1 cDNA construct (FIG. 23) contains human tau cDNA coding for amino acid residues 296-390 with a signal sequence and related sequences in a murine Thy-1 expression cassette. For brain lysate preparation, half brains were sectioned into four and the individual sections were homogenised in 400 μl of ice cold RIPA buffer (Cell signalling Technology) containing protease and phosphatase inhibitors. Total protein concentrations for individual samples were established by BCA-assay and each sample was subsequently diluted to 1 mg/ml for future experiments.
For capture ELISA, 100 μL S1D12 capture mAb was used to coat a nunc 96 well Maxisorp plate at 1 μg/ml and incubated for 1 hour at 37° C. Plate was washed as previously and then blocked for 1 hour at 37° C. in 2% MPBS. Brain homogenate samples (50 ng total protein) from each mouse type were added to the first wells and double diluted across the plate in PBS. These samples were left to incubate at RT for 1 hour. Various detection scAbs encompassing epitopes of interest were then added to the plate at 1 μg/ml and incubated for 1 h at RT. Secondary antibody used was anti-HuCk HRP and the assays were developed as described previously. Using S1D12 mAb capture and two separate scAb detectors, S-1G2 (FIG. 24A) and C-B7 (FIG. 24B), it was possible to differentiate between L1 and L66 samples and the wild type.

B1: CA4: anti-tau clone, SEQ ID NO: 368 (protein)
chain: QVQLQESGPSLVKPSQTLSLTCTVSGFSLTSYSVYWVRQAPGQALEWISIMYASGRVDYNPALKSRLSITRDTSKSQFSLSLSSVTTEDTAVYYCTRGIENWGPGLLVTVSSEGKSSGASGESKVDDDIQVTQSPSSLSASLTERVSITCRTSQSVNNYLSWYQQKPGQAPKLLIYYATRLYTDVPSRFSGSGSGTDYTLTITSLEADDTATYYCLQYDSTPLAFGGGTNVEIK
modifications: CA4 amino acid sequence
Plasma tau
  detection of tau in human plasma: high levels of Core/Proline tau is detected in cognitively unimpaired (CU) samples only

B2: CE2: anti-tau clone referred to as CE2 or E1B8, SEQ ID NO: 366 (protein)
scFv: QVQLQESGPSLVKPSQTLSLTCTVSGFSLTNYPVGWVRQAPGKALEWIGNIENDGSANYASALKSRLSITRDTSKNQVSLSLSSATTEDTAVYYCGREFGGSDGYTYFVDIDYWGPGLLVTVSSEGKSSGASGESKVDDQAVLTQPSSVSKSLGQSVSITCSGSSSNVGYGNYVSWFQQVPGSAPKILIYGATSRASGVPDRFSGSRSGNTATLTITSLQAEDEADYYCASYDGSSSGVFGSGTRLTVLG
modifications: CE2/E1B8 amino acid sequence
dGA; Table 24
  ka: 137000 M⁻¹ s⁻¹
dGA; Table 24, dissociation rate
  dissociation rate constant (kd): 0.00242 s⁻¹
hT40
  Tau proteins/fragments with positive scAb reactivity: 297-390 (dGA), 297-391 and (dGAE), 313-336

B3: CB7: anti-tau clone, SEQ ID NO: 364 (protein)
scFv: QVQLQESGPSLVKPSQTLSLTCTVSGFSLTNYRVGWVRQAPGKALEWVSNIRSGGTTWYNPALKSRLSITADTSKSQVSLSLSSVTTEDTAVYYCARDSSGDLYAYDYWGPGLLVTVSSEGKSSGASGESKVDDQAVLTQPSSVSRSLGQSVSMTCSGSSSNVGYGNYMAWFQQVPGSAPKLLIYGATSRASGVPDRFSGSRSGNTATLTISSLQAEDEADYYCASYDSTSGGVFGSGTRLTVLG
modifications: CB7 amino acid sequence
Tau [1]
  cross-reaction with endogenous mouse tau protein: does not cross react with endogenous mouse tau protein
Tau [2]
  Western blot reactivity: specificity for human tau
Tau protein; listed as C-B7 scAb
  detection of tau in mouse brain homogenate: hT40 tau was specifically detected in L66 samples
Tau protein; listed as CB7 scAb
  detection of tau in mouse brain homogenate: can specifically detect human tau in Line66 homozygous and heterozygous samples
